Source: US20220403332A1, “SELF-ORGANIZING NEURAL ECTODERMAL LINEAGE CELLULAR STRUCTURES, AND COMPOSITIONS AND METHODS RELATING THERETO” (THE ROCKEFELLER UNIVERSITY, priority 2019, published 2022)

B1: BMP4: bone morphogenetic protein (BMP) used as morphogen to drive neuruloid formation (protein, UniProt P12644 293-408, looked up)
Bone morphogenetic protein 4: SPKHHSQRARKKNKNCRRHSLYVDFSDVGWNDWIVAPPGYQAFYCHGDCPFPLADHLNSTNHAIVQTLVNSVNSSIPKACCVPTELSAISMLYLDEYDKVVLKNYQEMVVEGCGCR

Key:
Format in all cases: cell-based, human
[1] = system: day 7 neuruloid; experiment: neuruloid formation with blebbistatin, day 7 immunofluorescence; settings: day 7 neuruloid treated with Blebbistatin 5 μM; stained for DAPI, N-CAD, PAX6, COL4 (FIG. 12E)
Description: FIG. 12—related to FIG. 6. (A) RUES2 and 56CAG background distribution within the main cell populations found in the neuruloid. All clusters are well represented in either background although 56CAG has a higher relative proportion of NC and placode cells. (B) Gene ontology analyses using DAVID (www.david.ncifcrf.gov) for NE- and NC-specific DEG between RUES2 and 56CAG. (C) Violin plots showing the distribution of normalized gene expression values for the genes in FIGS. 6B and 6C. (D) qPCR validation of the down-regulation of WNT/PCP and cytoskeleton-associated genes in the 56CAG neuruloid versus WT RUES2. (E) Representative image of a day 7 neuruloid treated with Blebbistatin (5 μM) and stained for DAPI, N-CAD, PAX6, and COL4. (Top) side view, (Bottom) top view.
In order to unravel the molecular mechanisms underlying the morphogenetic defect, single-cell RNA-seq data of neuruloids in WT and 56CAG background was explored. All major cell populations found in the WT neuruloid were also present in the 56CAG background, supporting the lack of influence on fate specification (FIG. 12A). […] Using Seurat to identify differentially expressed genes (DEG) between 56CAG and RUES2 cell lines, 499 misregulated genes specific to the NE (adjusted p-value ≤0.05 and a minimum percentage difference in cells expressing the gene ≥10%) and 663 specific for the NC population was found (FIG. 6E). […]

[2] = system: 500 μm micropatterned colonies (hESCs, RUES2); experiment: neuruloid formation at different BMP4 concentrations, day 7 immunofluorescence; settings: 500 μm colonies at day 7
Description: FIG. 2 depicts self-organization into neuruloids on micropatterns. (A) Schematic of the neuruloid differentiation protocol. (B) Immunofluorescence imaging of 80, 200 and 500 μm of day 7 micropatterned colonies. Samples were stained with DAPI (gray), PAX6 (green), and N-CAD (orange). (C) Immunofluorescence imaging of 500 μm of day 7 micropatterned colonies. Samples were stained with DAPI (gray), PAX6 (green), and COL4 (Collagen IV, orange). Side view of resliced z-stack around PAX6+ center region, colony edge region is also shown. (D) replicates with PAX6 (green) and SOX10 (red). (E) (Left) Immunofluorescence imaging of 500 μm micropatterned colonies at day 7 with different BMP4 concentrations: 0, 3, 13, and 50 ng/ml. Samples were stained with PAX6 (green), SOX10 (red) and cranial placode marker SIX1 (orange). (Right) Quantifications of SIX1 positive cell number. Data are mean±standard deviation. (F) (Top Left) Sketch of the ectodermal compartment at neurulation in vivo. (Top Right) Sketch of the neuruloid on micropattern. (Middle panel) Side view of the day 7 neuruloid with 3 ng/ml of BMP. Samples were stained with DAPI, PAX6, SOX10, SIX1, and non-neural ectoderm maker TFAP2A. Note that the TFAP2A+ also stain a few SOX10 and SIX1 positive cells. The non-neural ectoderm cells are only TFAP2A positive. (Bottom) Top view by multiple z from bottom to top. All scale bars represent 50 μm. […]

[3] = system: pSMAD1; experiment: signaling dynamics time-course after BMP4 presentation (immunofluorescence, western blot)
Protocol: FIG. 4 depicts coupling of cell fate specification with a two-step morphogenesis mechanism during neuruloid formation. (A) (Top) time course immunofluorescence analysis of the neuruloid from day 3 to 4. Day 3 micropattern colonies were treated with BMP4 (3 ng/ml) for 1, 3, 5, 10, and 24 hours then stained with PAX6, pSMAD1, and TFAP2A. (Bottom Left) Western blot analysis of the micropattern colonies treated with BMP as above. Sample were stained with anti-pSMAD1/5 antibody. Anti-total SMAD antibody was used as a control. (Bottom Right) Quantification of the western blot analysis. (B) Time-lapse video microscopy imaging of neuruloid formation from day 3 to 6 using the live reporter line (PAX6::H2B-Citrin and SOX10::H2B-tdTomato). Images were recorded every 30 min from day 3 to the end of day 5 (66 hours total). Representative images are shown (a; first image of day 3, b; first image of day 4, c; first image of day 5, d; last image of day 5). […] (E) Associated quantification of PAX6, SIX1, and SOX10 area of the neuruloid treated with indicated drugs. […]
To uncover the molecular mechanisms of neuruloid self-organization, the signaling dynamics over a time-course after BMP4 presentation was followed. […] Only a few SOX10+ cells were detected during this initial phase, but a large expansion occurred in the SOX10 area concomitant with the PAX6 domain condensation starting at day 5. […]

Molecule | central neuro-epithelium morphology (opened versus closed) [1] | overall spatial distribution of cell types ([2]; BMP4 0, 3, 13 and 50 ng/ml from day 3) | number of SIX1+ cells ([2]; BMP4 0, 3, 13 and 50 ng/ml from day 3 (FIG. 2E, 8H)) | TFAP2A induction ([3]; 24 hours after BMP4 (3 ng/ml) presentation at day 3) | pSMAD1 signaling after BMP4 presentation ([3]; day 3 colonies treated with BMP4 3 ng/ml for 1, 3, 5, 10, 24 hours (FIG. 4A))
Cc1ccc2c(c1)C(=O)C1(O)CCN(c3ccccc3)C1=N2 (centres unmarked) [blebbistatin] | phenocopies the opened neuro-epithelium observed in HD and Htt−/− neuruloids |  |  |  | 
B1 |  | independent of BMP4 concentration | peaked at intermediate levels | induction of TFAP2A+ in the same domain | pulse of pSMAD1 restricted to the colony edge
